Experimental data published in the Human Domainome abundance scans (Beltran et al. 2025).

B1: LIM and senescent cell antigen-like-containing domain protein 2, residues 13 to 71; numbered along this chain, Q7Z4I7 (parent)
chain: AVCQRCQARFSPAERIVNSNGELYHEHCFVCAQCFRPFPEGLFYEFEGRKYCEHDFQML

Variants of: B1
Assay: abundance fitness (aPCA) (normalised: wild type 0, dead -1); higher = more abundant; growth selection in yeast, the domain comes from the species named
Conditions: Homo sapiens

Abundance fitness: each site, then its substitutions
R49: N -0.482, I -0.101
F38: R -0.571, D -0.522, N -0.113, C -0.18, T -0.123, M -0.225, W -0.273, Y -0.638, K -0.238, A -0.318, I -0.55, E -0.512, Q -0.606, L 0.045, H -0.784, P -0.101, G -0.58
Y51: T -0.702, H -0.743, W -0.426, A -0.754, V 0.014, L 0.186, Q -0.785, P -0.729, E -0.604, F -0.053, M 0.088, I -0.283, G -0.922, K -0.276, N -0.877, C -0.298, D -0.452
Y44: F 0.002, K -0.03, N 0.088, R -0.033, Q -0.019, W -0.145, S -0.342, A -0.404, D -0.259, L -0.247, C -0.009, M -0.114, I -0.046, H 0.024, T -0.253, G -0.324, E -0.086, P -0.941
P37: A -0.187, K -0.214, E 0.042, L -0.349, D -0.217, T -0.148, Y -0.14, S -0.016, I -0.23, H -0.445, Q -0.343, M -0.198, V -0.193, W -0.371, G -0.328, C -0.171, F -0.192
C31: T -0.975, R -0.767, V -1.04, W -0.893, M -0.785, Q -1.06, S -0.896, P -0.888
K50: G -0.212, P -0.177, T -0.047, Q -0.032, V -0.091, A -0.2, M 0.168, E -0.263, H -0.225, R -0.05, F -0.3, W -0.191, S -0.216, N 0.185, L 0.005, Y -0.104, D -0.473
C34: T -1.13, M -0.474, R -0.668, G -0.544, A -0.871, S -1, L -0.52, Y -0.933, Q -0.622, D -0.757, V -1.04, K -0.901, N -0.865, F -1.19, W -1.1, E -0.788, P -0.508
G48: W -0.838, R -0.083, S -0.021, V -0.775, Y -0.451, D -0.03, I -0.789, H -0.411, C -0.224, Q -0.238, N 0.114, K -0.067, T -0.15, M -0.398, E -0.062, A -0.201, P -0.686
P39: S -0.124, W -0.206, E -0.024, K -0.064, C 0.01, T -0.091, R -0.107, Y -0.396, A -0.056, V -0.017, D 0.05, L -0.211, M -0.143, H -0.383, G -0.159, F -0.565, Q -0.058, I -0.396
R36: Q 0.063, M -0.042, W -0.423, V -0.399, C -0.026, S -0.008, E 0.01, D -0.095, F -0.298, H -0.024, Y -0.515, I -0.232, G -0.064, N -0.156, P -0.625, T -0.268, A -0.196, K 0.094, L -0.176
